Data published in IntAct's records for PubMed 10798620.

Legend:
gdir_arath GDI1 [1] = target: gdir_arath GDI1 (UniProt Q9SFC6)
gdir_arath GDI1 [2] = target: gdir_arath GDI1 (UniProt Q9SFC6); remark: listed apart in the source

Chain of gdir_arath GDI1 (Q9SFC6 whole entry): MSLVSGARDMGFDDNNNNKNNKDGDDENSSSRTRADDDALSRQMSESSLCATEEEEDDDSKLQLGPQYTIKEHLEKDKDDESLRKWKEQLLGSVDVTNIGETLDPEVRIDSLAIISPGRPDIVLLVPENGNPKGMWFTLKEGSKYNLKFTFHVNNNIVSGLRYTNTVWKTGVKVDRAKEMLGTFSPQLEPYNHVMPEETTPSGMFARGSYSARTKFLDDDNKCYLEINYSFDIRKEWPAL
Chain of Rac-like GTP-binding protein ARAC3 (Arabidopsis thaliana (Mouse-ear cress)), Q38912 T20N (Q38912 whole entry T20N): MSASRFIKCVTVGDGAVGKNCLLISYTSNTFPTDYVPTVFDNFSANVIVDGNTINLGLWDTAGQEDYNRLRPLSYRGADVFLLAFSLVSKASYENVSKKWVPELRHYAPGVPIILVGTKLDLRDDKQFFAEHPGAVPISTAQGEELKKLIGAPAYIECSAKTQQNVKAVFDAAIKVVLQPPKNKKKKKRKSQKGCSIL
Chain of Rac-like GTP-binding protein ARAC5 (Arabidopsis thaliana (Mouse-ear cress)), Q38937 T20N (Q38937 whole entry T20N): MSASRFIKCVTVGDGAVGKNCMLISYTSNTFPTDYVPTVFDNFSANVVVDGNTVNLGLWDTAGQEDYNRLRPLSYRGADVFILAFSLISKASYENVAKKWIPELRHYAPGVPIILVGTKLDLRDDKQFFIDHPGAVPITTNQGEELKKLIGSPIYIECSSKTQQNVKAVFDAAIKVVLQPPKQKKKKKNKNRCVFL

Rac-like GTP-binding protein ARAC5 (Arabidopsis thaliana (Mouse-ear cress)), Q38937 T20N
effect of a mutation on the interaction (gdir_arath GDI1 [1]): disrupting interaction

Rac-like GTP-binding protein ARAC3 (Arabidopsis thaliana (Mouse-ear cress)), Q38912 T20N
effect of a mutation on the interaction (gdir_arath GDI1 [2]): disrupting interaction
